# IntAct's records for PubMed 24165324
# Target: gsk3b_human GSK3B (UniProt P49841)
# UniProt P49841, sequence (P49841 whole entry, looked up): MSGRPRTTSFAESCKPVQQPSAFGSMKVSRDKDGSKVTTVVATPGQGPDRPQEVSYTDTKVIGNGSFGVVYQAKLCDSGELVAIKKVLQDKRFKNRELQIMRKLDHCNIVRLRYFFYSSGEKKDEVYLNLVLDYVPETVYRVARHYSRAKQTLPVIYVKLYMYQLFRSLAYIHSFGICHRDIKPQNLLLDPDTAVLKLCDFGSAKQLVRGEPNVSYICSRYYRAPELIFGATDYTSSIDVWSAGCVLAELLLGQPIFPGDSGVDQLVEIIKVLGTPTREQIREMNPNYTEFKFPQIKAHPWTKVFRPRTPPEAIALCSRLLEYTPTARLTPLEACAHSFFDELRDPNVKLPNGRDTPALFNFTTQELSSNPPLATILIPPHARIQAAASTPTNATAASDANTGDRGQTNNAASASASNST
substance,measurement,value
"Leucine-rich repeat serine/threonine-protein kinase 2 (Homo sapiens), Q5S007 G2019S",effect of a mutation on the interaction,increasing interaction
